Experimental findings from patent publication US20240368309A1 (Hoffmann-La Roche, published 2024) are described below.

In the test the target is T1, biotinylated monovalent EpCAM-Fc (human EpCAM ECD-Fc knob avi-his paired with Fc hole) (human, UniProt P01857 104-328 = IgG part, biotin on the avi tag (BirA co-expression)).
T1 construct: also called monovalent EpCAM-Fc construct; huEPCAM-Fc-knob (avi-His) + Fc hole (wt)
In words: SPR ProteOn XPR36 off-rate, biotinylated monovalent EpCAM-Fc on NLC chip.

B1: parental murine anti-human EpCAM antibody MOC31 (antibody, V domains shown)
VH: QVQLQQSGPELKKPGETVKISCKASGYTFTNYGMNWVKQAPGRGLKWMGWINTYTGESTYADDFKGRFAFSLETSASAAYLQINNLKNEDTATYFCARFAIKGDYWGQGTTLTVSS
VL: DIVMTQSAFSNPVTLGTSASISCRSTKSLLHSNGITYLYWYLQKPGQSPQLLIYQMSNLASGVPDRFSSSGSGTDFTLRISRVEAEDVGVYYCAQNLEIPRTFGGGTKLEIK
A word on the koff: it is the first-order rate constant of dissociation. Low values mean slow dissociation, high ones fast dissociation. In the case of B1, the off-rate (koff) is 0.00024 s⁻¹.
